Measured values from patent publication US20120129768A1.
Non-standard residues stand in square brackets, D forms with d. No end group written: not given here.

Target: Glucagon-like peptide-1 receptor (GLP1R)
Assay: cell-based or functional assay

B1: HS-20003 (peptide)
peptide: H[dA]EGTFTSDVSSYLEEEAAKEFIAWLVRGGPSSGAPPPSK
modifications: not fully specified (residue 40); also: palmitoyl on alpha-amino of C-terminal Lys, chain built on its epsilon amino
EC50 (nM), cAMP-response-element luciferase reporter in HEK293 cells with GLP1R: 0.000719 nM
Maximum reaction rate (%): 87.9%
